The values that follow come from US20180057604A1 (Genentech, published 2018).

Numbering of substitutions follows the chain as printed.

To fix the notation:
T1: cyno TfR extracellular domain (analogous construct to human TfR ecd) (cynomolgus monkey, UniProt Q5RDH6 87-760 (Pongo abelii entry))
T1 construct: also called cynoTfR ecd
T1 chain: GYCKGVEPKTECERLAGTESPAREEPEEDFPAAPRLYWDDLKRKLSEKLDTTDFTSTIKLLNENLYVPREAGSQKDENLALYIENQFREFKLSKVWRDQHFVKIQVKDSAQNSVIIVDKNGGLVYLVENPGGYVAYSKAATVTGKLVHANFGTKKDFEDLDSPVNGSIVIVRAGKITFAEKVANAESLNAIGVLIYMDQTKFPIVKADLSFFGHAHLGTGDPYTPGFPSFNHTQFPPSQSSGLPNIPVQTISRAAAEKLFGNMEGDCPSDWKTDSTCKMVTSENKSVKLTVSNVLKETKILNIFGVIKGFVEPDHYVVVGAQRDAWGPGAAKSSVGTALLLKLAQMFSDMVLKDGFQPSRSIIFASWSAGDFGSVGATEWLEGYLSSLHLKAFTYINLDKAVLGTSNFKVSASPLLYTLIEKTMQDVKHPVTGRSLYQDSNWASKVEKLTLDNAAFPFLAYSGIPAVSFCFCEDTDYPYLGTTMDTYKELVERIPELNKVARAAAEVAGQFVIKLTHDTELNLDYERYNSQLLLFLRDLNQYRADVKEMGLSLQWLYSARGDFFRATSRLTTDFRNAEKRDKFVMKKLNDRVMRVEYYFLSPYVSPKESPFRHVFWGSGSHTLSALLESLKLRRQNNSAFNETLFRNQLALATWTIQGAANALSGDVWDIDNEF

B1: 16F6 (antibody, V domains shown)
VH: DVQLQESGPGLVKPSQSLSLTCTVTGNSITSEYAWNWIRQFPGNKLEWMGYISYSGTTSYNPSLKSRISITRDTSKNQLFLQLNSVTTEDTATYFCARYGYGNPATRYFDVWGAGTTVTVSS
VL: DVQITQSPSYLTASPGETITINCRASKSISKYLAWYQEKPGKTNKLLIYSGSTLQSGIPSRFSGSGSGTDFTLTISNLEPEDFAMYYCQQHNEYPWTFGGGTKLEIK
notes: Mouse hybridoma antibody; also called clone 16F6
B2: 7A4 (antibody, V domains shown)
VH: QVQLQQSGPELVRPGVSVKISCKGSGYTFTDYAMHWVKQSHAKSLEWIGGISTYFGRTNYNQKFKGRATMTVDKSSSTAYMELARLTSEDSALYYCARGLSGNYVMDYWGQGTSVTVSS
VL: DIVLTQSPASLAVSLGQRATISCRASESVDDYGNSFMHWYQQKPGQPPKLLIYRASNLESGIPARFSGSGSRTDFTLTINPVEADDVATYYCQQSNEAPPTFGGGTKLEIR
notes: also called clone 7A4
B3: 7A4 HC/8A2 LC (antibody, V domains shown)
VH: B2 VH
VL: B2 VL with D31S, A98G, R111K
notes: chimeric IgG; also called ch7A4/8A2
B4: 5897 (antibody, V domains shown)
VH: QLQLQESGPGLVKPSETLSLTCTVSGGSISWSSYYWSWIRQPPGKGLEWIGSIYKSGRTYYNPSLKSRVTISVDTSKNQFSLKLSSVTAADTAVYYCARVGHGISYFDLWGRGTLVTVSS
VL: EIVLTQSPATLSLSPGERATLSCRASQSVSSYLAWYQQKPGQAPRLLIYDASNRATGIPARFSGSGSGTDFTLTISSLEPEDFAVYYCQQSLTWPPRTFGGGTKVEIK
notes: anti-BACE1 IgG
B5: 5888 (antibody, V domains shown)
VH: QVQLVQSGAEVKKPGSSVKVSCKASGGTFWKYAISWVRQAPGQGLEWMGNIIPGFGTANYAQKFRGRVTITADESTSTAYMELSSLRSEDTAVYYCARSGGTKYGMLDVWGQGTMVTVSS
VL: EIVMTQSPATLSVSPGERATLSCRASQSVSSNLAWYQQKPGQAPRLLIYGASTRATGIPARFSGSGSGTEFTLTISSLQSEDFAVYYCQQLILWPPRTFGGGTKVEIK
notes: anti-BACE1 IgG
B6: 5892 (antibody, V domains shown)
VH: B5 VH with W30S, K31S, G54I, N59T, R65Q
VL: B5 VL with S30G, I92Y, L93T
notes: anti-BACE1 IgG
B7: 5930 (antibody, V domains shown)
VH: B5 VH with F29L, W30S, K31G, F64S, R65Q, K103R
VL: B5 VL with S30G, I92Y, L93T
notes: anti-BACE1 IgG
B8: 5890 (antibody, V domains shown)
VH: B5 VH with W30S, K31S, R65Q
VL: B5 VL with S30G, I92Y, L93T
notes: anti-BACE1 IgG
B9: 5891 (antibody, V domains shown)
VH: B5 VH with W30S, K31S, G54I, T57P, R65Q
VL: B5 VL with S30G, I92Y, L93T
notes: anti-BACE1 IgG
B10: 5893 (antibody, V domains shown)
VH: B5 VH with W30R, K31G, R65Q
VL: B5 VL with S30G, I92Y, L93T
notes: anti-BACE1 IgG

T2 sequence (P02786 89-760 G142S): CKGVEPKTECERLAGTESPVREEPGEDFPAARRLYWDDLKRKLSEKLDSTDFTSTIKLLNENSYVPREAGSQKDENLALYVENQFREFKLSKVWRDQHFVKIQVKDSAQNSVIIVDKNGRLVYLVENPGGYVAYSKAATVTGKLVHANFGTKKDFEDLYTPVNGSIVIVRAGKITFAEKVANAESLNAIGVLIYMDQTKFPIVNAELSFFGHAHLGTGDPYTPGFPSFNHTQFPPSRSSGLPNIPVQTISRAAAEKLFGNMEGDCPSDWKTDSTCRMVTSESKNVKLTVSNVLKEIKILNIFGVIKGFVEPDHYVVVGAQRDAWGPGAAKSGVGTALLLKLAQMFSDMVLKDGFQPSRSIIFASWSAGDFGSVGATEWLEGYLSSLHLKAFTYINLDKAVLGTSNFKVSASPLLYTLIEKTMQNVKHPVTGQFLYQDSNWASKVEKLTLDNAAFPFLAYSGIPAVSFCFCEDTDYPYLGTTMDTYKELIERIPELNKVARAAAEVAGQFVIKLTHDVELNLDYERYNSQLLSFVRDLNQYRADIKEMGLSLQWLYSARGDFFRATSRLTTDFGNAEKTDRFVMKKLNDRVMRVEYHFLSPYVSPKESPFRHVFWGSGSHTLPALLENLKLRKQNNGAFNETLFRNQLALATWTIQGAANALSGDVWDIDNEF

One experiment addresses T2, human TfR extracellular domain with N-terminal His tag (human, UniProt P02786 89-760).
T2 construct: Biotinylated in some assays; also called huTfR; HuTfR
The experiment in a line: SPR, IgG.
In turn, B1 returned a Kd of 2.07 nM.
In the case of B2, the Kd stood at 0.206 nM.
B3 returned a Kd of 0.112 nM.

For the next experiment, the target named is T1, cyno TfR extracellular domain …. The experiment in a line: SPR, IgG.
For B1, the Kd was found to be 7.45 nM.
For the molecule B2, binding was characterised by a dissociation constant (Kd) of 0.627 nM.
Same read-out and setting: the same measure for B3: 0.925 nM.

The target in another experiment is T2, human TfR extracellular domain with …. The experiment in a line: SPR, IgG. The source holds these as a separate data set.
B2 yielded a Kd of 0.206 nM.
In the case of B3, binding was characterised by a dissociation constant (Kd) of 0.112 nM.

The target of a further experiment is T1, cyno TfR extracellular domain …. Description: SPR, IgG. The source holds these as a separate data set.
Regarding B2, the Kd came to 0.627 nM.
For B3, the Kd was found to be 0.925 nM.

Another experiment addresses T2, human TfR extracellular domain with …. The experiment in a line: SPR, IgG. The source holds these as a separate data set.
B1: the Kd worked out at 2.07 nM.

The target in another experiment is T1, cyno TfR extracellular domain …. The experiment in a line: SPR, IgG. This is another data set of the same source.
In the case of B1, the Kd is 7.45 nM.

The target of a further experiment is T3, human BACE1 ECD.
T3 construct: analyte of the Octet assay (200 nM) and enzyme of the first short substrate assay; also called human BACE1 extracellular domain
T3 sequence (single chain, as listed by the source limits assumed): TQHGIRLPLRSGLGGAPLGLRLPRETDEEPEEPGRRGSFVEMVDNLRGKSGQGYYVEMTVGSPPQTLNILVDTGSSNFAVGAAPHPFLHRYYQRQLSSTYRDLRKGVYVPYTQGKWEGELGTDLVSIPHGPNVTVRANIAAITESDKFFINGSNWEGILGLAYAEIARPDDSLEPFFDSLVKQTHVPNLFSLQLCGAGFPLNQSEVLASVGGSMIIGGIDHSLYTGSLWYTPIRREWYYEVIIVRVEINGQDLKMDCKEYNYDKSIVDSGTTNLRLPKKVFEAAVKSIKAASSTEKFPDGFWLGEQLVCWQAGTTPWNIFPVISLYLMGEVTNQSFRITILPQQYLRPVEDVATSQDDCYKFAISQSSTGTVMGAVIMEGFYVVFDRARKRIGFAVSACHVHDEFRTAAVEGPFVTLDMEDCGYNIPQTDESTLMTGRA
The experiment in a line: Octet, pH 5.0.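 Also: antibodies captured on anti-human capture sensor tips, dissociation monitored in PBS with BSA buffer, kinetics fitted with a one-to-one binding model.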
B4: the Kd was 0.82 nM.
B5 returned a Kd of 1.8 nM.
B6 came in with a Kd of 0.39 nM.
Consider B7, for which the Kd is less than 0.23 nM.
The molecule B8 came in with a Kd of 0.64 nM.
Regarding B9, the Kd amounted to 0.96 nM.
For B10, the Kd was 0.38 nM.

A further experiment deals with T4, murine BACE1 ECD.
T4 construct: analyte of the Octet assay (200 nM) and enzyme of the first short substrate assay
T4 sequence (single chain, as listed by the source limits assumed): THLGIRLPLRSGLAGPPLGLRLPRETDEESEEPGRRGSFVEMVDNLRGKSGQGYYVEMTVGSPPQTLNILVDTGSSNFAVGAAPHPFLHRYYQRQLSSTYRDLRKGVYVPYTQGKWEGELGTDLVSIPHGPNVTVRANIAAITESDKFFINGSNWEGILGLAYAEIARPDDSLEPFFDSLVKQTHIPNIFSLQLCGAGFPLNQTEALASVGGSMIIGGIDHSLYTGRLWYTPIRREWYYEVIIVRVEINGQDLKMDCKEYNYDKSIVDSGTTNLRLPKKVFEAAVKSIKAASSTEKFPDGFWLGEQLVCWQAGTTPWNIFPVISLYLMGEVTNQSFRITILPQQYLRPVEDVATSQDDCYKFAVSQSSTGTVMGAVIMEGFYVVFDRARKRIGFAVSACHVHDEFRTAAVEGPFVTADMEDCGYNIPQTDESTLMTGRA
The experiment in a line: Octet, pH 5.0.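 Also: antibodies captured on anti-human capture sensor tips, dissociation monitored in PBS with BSA buffer, kinetics fitted with a one-to-one binding model.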
With B4, binding was put at a Kd of 0.82 nM.
Consider B5, for which binding was characterised by a dissociation constant (Kd) of 2 nM.
On the same count and under the same terms, the same measure for B6: 1.1 nM; for B7: less than 0.29 nM.
The molecule B8 showed a Kd of 0.79 nM.
The molecule B9 had a Kd of 1.1 nM.
B10 had a Kd of 0.73 nM.

A further experiment addresses T3, human BACE1 ECD. Description: Octet, pH 7.5.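 Also: antibodies captured on anti-human capture biosensor tips, dissociation followed in PBS with BSA buffer, kinetics fitted with a one-to-one binding model.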
For B4, binding was put at a Kd of 0.95 nM.
As to B5, the Kd was determined as 0.86 nM.
B6 yielded a Kd of 0.88 nM.
The molecule B7 gave a Kd of less than 0.29 nM.
Turning to B8, the Kd turned out to be 0.55 nM.
Molecule B9 gave a Kd of 0.65 nM.
As for B10, the Kd is 0.33 nM.

For another experiment, the target named is T4, murine BACE1 ECD. Description: Octet, pH 7.5.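 Also: antibodies captured on anti-human capture biosensor tips, dissociation followed in PBS with BSA buffer, kinetics fitted with a one-to-one binding model.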
B4 came in with a Kd of 1.1 nM.
The molecule B5 registered a Kd of 1.4 nM.
B6 yielded a Kd of 1.3 nM.
Take B7: the Kd is less than 0.3 nM.
On the same count and under the same terms, next, B8: 1 nM; B9: 1.4 nM.
On to B10, for which the dissociation constant (Kd) was determined as 0.98 nM.

The next experiment deals with T5, human BACE1 (R&D Systems) (human, UniProt P56817).
T5 construct: recombinant, commercial (R&D Systems)
T5 sequence (P56817 22-457 limits assumed): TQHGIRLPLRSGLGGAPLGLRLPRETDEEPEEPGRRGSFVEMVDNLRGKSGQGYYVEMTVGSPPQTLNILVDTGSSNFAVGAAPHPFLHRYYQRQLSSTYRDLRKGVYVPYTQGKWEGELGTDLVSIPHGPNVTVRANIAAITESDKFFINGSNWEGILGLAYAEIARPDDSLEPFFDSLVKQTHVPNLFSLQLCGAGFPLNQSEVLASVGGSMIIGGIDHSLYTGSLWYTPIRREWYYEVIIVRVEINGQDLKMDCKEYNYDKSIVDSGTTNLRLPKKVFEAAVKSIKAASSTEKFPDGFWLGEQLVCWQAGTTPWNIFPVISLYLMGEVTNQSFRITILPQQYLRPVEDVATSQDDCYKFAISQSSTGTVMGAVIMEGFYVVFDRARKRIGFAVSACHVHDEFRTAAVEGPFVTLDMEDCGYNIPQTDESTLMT
Description: SPR (Biacore).
The molecule B4 gave a Kd of 2.07 nM.
Take B5: the Kd was 4.25 nM.
B6 registered a Kd of 2.97 nM.
Same read-out and setting: the same measure for B7: 6.41 nM; for B8: 3.22 nM.
B9 gave a Kd of 3.29 nM.
Molecule B10 had a Kd of 2.76 nM.

The target in a further experiment is T3, human BACE1 ECD. Description: cell-based or functional assay.
With B4, the “% inhibition of BACE1 activity, short FRET substrate” value (shortened to “% inhibition of BACE1 activity”) stood at 1%.
Take B5: the “% inhibition of BACE1 activity” value was -86%.
Same read-out and setting: next, B6: 64%; B8: 66%; B9: 71%.
Take B10: the “% inhibition of BACE1 activity” value came to 72%.

A further experiment addresses T4, murine BACE1 ECD. The experiment in a line: cell-based or functional assay.
For B4, the “% inhibition of BACE1 activity” value was -3%.
On to B5, for which the “% inhibition of BACE1 activity” value was -183%.
On to B6, for which the “% inhibition of BACE1 activity” value is 64%.
With B8, the “% inhibition of BACE1 activity” value came to 69%.
Still for that read-out and setting: the same measure for B9: 70%.
On to B10, for which the “% inhibition of BACE1 activity” value amounted to 69%.

The next experiment has as its target BACE1 (HTRF long substrate and FRET short substrate assays of Example 9D). Description: cell-based or functional assay.
Regarding B4, the “EC50, FRET short substrate” value is 0.528 nM and the “EC50, HTRF long substrate” value was 1.39 nM.
With B5, the “EC50, FRET short substrate” value was 0.602 nM and the “EC50, HTRF long substrate” value stood at 2.5 nM.
In the same order, the values of B6 are 16.4 nM and 1.19 nM.
The corresponding values for B8 are 32.4 nM and 4.06 nM.
For B9, the “EC50, FRET short substrate” value stood at 12.4 nM and the “EC50, HTRF long substrate” value was determined as 3.03 nM.
With B10, the “EC50, FRET short substrate” value is 8.84 nM and the “EC50, HTRF long substrate” value was 3.59 nM.

For another experiment, the target named is T6, BACE1 in primary mouse cortical neurons (mouse, UniProt P56818 46-501). The experiment in a line: cell-based or functional assay.
T6 sequence (P56818 46-501): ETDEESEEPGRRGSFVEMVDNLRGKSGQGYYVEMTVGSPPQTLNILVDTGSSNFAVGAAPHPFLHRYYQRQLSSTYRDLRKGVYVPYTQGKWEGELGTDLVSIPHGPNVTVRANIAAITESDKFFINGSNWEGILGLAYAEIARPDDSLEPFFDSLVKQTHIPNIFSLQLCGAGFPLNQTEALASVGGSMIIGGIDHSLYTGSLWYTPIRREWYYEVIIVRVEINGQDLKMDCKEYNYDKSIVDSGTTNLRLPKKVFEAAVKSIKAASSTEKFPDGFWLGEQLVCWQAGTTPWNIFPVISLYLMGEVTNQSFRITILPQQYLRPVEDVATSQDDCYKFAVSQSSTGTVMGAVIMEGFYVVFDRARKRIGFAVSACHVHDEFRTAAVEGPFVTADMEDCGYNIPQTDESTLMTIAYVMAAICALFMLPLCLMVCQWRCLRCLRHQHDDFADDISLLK
For B4, the “IC50, Abeta x-40 in mouse cortical neurons” value worked out at 0.3 nM and the “maximal % inhibition of Abeta x-40” value was determined as 62%.
Turning to B5, the “IC50, Abeta x-40 in mouse cortical neurons” value worked out at 1.79 nM and the “maximal % inhibition of Abeta x-40” value was determined as 82%.
B6: the “IC50, Abeta x-40 in mouse cortical neurons” value came to 9.52 nM and the “maximal % inhibition of Abeta x-40” value was 73%.
For B8, the “IC50, Abeta x-40 in mouse cortical neurons” value turned out to be 8.45 nM and the “maximal % inhibition of Abeta x-40” value is 77%.
B9: the “IC50, Abeta x-40 in mouse cortical neurons” value came to 18 nM and the “maximal % inhibition of Abeta x-40” value amounted to 78%.
For B10, the “IC50, Abeta x-40 in mouse cortical neurons” value came to 9.46 nM and the “maximal % inhibition of Abeta x-40” value stood at 73%.

A further experiment has as its target T6, BACE1 in primary mouse cortical neurons. Description: cell-based or functional assay. This is another data set of the same source.
For B7, the “IC50, Abeta x-40 in mouse cortical neurons” value came to 7.52 nM and the “maximal % inhibition of Abeta x-40” value turned out to be 74%.
